Measured values: patent US20090130105A1 (Biogen, published 2009)
One block for each binder: values may come before it.

Experiments:
[1] = molecular target: T1, human IGF-1R on H322M non-small cell lung cancer cells (human, UniProt P08069 31-1367); assay: flow cytometry on H322M cells, anti-human Fc PE secondary (FIG. 55B)
T1 construct: Endogenous receptor of the tumor cell line; also called cell surface IGF-1R
Protocol: Cell lines were routinely cultured no greater than 20 passages. Flow cyotometric analysis of antibody binding to human cancer cells. Cells were lifted with cell dissociation buffer (Gibco catalog #13151-014), counted, washed and adjusted to 5×10⁶ cells/ml. Cells (2.5×10⁵; 50 uL) were added to each well of a 96-well round bottom plate (Costar #3799). Purified antibodies were tested at a starting concentration of 300 nM with serial half-log dilutions in FACS buffer. FACS buffer used throughout the assay was PBS (without Ca++/Mg++) containing 5% FBS. Samples were incubated on ice for 30 minutes, washed 3× with 200 uL FACS buffer and centrifuged at 1200 rpm for 3 minutes at 4° C. C2B8 (rituximab, IgG1) was used as a negative control. […] Samples were incubated for an additional 30 minutes on ice, shielded from light. Cells were washed as described above and resuspended in 100 μl FACS buffer containing propidium iodide (PI) for dead cell exclusion (BD Pharmingen, catalog# 51-66211E or 556463; use at 1:500 final in FACS buffer). Samples were run in triplicate using the FACSArray flow cytometer (Becton Dickinson) with 5000 live events collected per sample. Data analysis was performed using the GraphPad Prism version 5.0 software (GraphPad Software Inc., 11452 El Camino Real #215, San Diego, Calif. 92130). Results. […]

[2] = molecular target: T2, hIGF-1R-Fc mutant SD015 (H464E) (human, UniProt P08069 31-933); assay: SPR (Biacore relative RUmax) and tr-FRET competition
T2 construct: not shown: human IgG1 Fc, C-terminal tag
T2 sequence (P08069 31-933 H494E): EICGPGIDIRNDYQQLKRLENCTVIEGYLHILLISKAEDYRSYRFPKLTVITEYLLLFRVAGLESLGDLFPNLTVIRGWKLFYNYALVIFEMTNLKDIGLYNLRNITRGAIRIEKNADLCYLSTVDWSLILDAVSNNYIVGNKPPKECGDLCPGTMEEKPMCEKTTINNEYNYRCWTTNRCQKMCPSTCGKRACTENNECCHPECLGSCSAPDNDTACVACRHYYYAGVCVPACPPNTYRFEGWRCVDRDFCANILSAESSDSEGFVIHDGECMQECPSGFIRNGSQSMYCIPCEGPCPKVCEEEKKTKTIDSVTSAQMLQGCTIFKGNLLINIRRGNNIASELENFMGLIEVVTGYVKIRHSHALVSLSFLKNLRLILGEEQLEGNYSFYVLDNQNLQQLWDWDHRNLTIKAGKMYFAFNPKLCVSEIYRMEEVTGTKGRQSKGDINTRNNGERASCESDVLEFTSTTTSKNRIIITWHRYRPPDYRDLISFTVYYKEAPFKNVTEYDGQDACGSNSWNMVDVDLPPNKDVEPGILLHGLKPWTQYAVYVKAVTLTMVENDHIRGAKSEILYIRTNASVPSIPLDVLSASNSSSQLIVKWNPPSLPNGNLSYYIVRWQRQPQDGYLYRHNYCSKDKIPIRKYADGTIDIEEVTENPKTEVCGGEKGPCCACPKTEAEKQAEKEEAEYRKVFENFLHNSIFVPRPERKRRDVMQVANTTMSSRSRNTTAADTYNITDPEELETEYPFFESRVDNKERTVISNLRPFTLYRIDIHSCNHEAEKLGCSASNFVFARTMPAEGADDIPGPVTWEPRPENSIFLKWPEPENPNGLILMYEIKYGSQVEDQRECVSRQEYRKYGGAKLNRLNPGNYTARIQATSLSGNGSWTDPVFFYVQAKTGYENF
Protocol: (§1) After, completion of the receptor-Fc loading step, flow rates were elevated to 5 μl/min. […] At the end of each sensorgram, the flow rate was elevated to 30 μl/min and the chip surface was regenerated by 2×10 μL injections of 0.1 M glycine, pH 2.

sIGF-1R(1-903) = molecular target: T3, sIGF-1R(1-903) (human, UniProt P08069 31-933); assay: ITC, 25 °C, antibody into sIGF-1R(1-903)
T3 construct: also called soluble IGF-1R ectodomain
T3 sequence (P08069 31-933): as the sequence (P08069 31-933 H494E) above, with E464H counted along it
Protocol: Isothermal Titration Calorimetry (ITC). […] The reagents were co-dialyzed against PBS, pH 7.2. The protein solutions were adjusted to the concentrations listed above by dilution using PBS dialysate. […] The protein solutions were prepared as described above for the MAb binding experiments. All ITC experiments were performed on an ITC₂₀₀ microcalorimeter (MicroCal, LLC) at 25° C. […] IGF-1R bispecific antibodies. A four minute equilibration period was used between all injections with an initial delay of 60 seconds. Numerical integration of the data was performed using the ITC data analysis software supplied by MicroCal (Origin). ΔHA° (T) values were calculated based on the difference between the average heat liberated/absorbed during the binding phase of the injections and the average heat of dilution found once the receptor, IGF-1R, was saturated with MAb or BsAb.

[3] = molecular target: T4, hIGF-1R-Fc mutant SD103 (D461A, V462T) (human, UniProt P08069 31-933); assay: SPR, immobilized antibody
T4 construct: not shown: human IgG1 Fc, C-terminal tag
T4 sequence (P08069 31-933 D491A/V492T): as the sequence (P08069 31-933 H494E) above, with D461A, V462T, E464H counted along it
Protocol: Surface plasmon resonance (SPR) experiments were performed on a Biacore 3000 instrument set to 25° C. […] The antibody sensorchip surfaces were prepared by injecting each antibody (diluted 100 μg/mL in 10 mM Acetate, pH 4.0) over EDC/NHS-activated sensorchip surfaces according to the standard protocol of the manufacturer. […] Both hIGF-1R-Fc and mIGF-1R-Fc proteins oligomerize due to the incorporation of two separate homodimeric regions (IGF-1R and IgG1-Fc). […] After, completion of the receptor-Fc loading step, flow rates were elevated to 5 μl/min. […] Dissociation was measured for 7 minutes after the antibody injections were complete. Finally, the flow rate was elevated to 30 μL/min and the chip surfaces were regenerated by 2×10 μL injections of 0.1 M glycine, pH 2.

human IGF-1R(1-903)-Fc [4] = molecular target: T5, human IGF-1R(1-903)-Fc (human, UniProt P08069 31-933); assay: IGF-2 blocking ELISA: antibody titrated in 640 nM IGF-2 His on biotinylated hIGF-1R-Fc on streptavidin plates, bound ligand detected with anti-His-HRP
T5 construct: also called hIGF-1R-Fc; SDWT; not shown: human IgG1 Fc, C-terminal tag
T5 sequence (P08069 31-933): as the sequence (P08069 31-933 H494E) above, with E464H counted along it

[5] = molecular target: T2, hIGF-1R-Fc mutant SD015 (H464E); assay: SPR (Biacore 3000): SD015 captured on immobilized M13-C06 surface, M13-C06 (Fab according to paragraph 695) injected at 0, 1, 3, 10 nM
Protocol: as §1

human IGF-1R(1-903)-Fc [6] = molecular target: T5, human IGF-1R(1-903)-Fc; assay: IGF-1 blocking ELISA: antibody titrated in 320 nM IGF-1 His on biotinylated hIGF-1R-Fc on streptavidin plates, bound ligand detected with anti-His-HRP
Protocol: The dilutions were added to the plates in duplicate at 100 μL/well and the plates were incubated at RT for 1 hour. The plates were then washed four times with 200 μL/well PBST. An HRP-conjugated anti-Histag antibody (Penta-His HRP Conjugate, QIAGEN, Cat. No. 1014992) was diluted 1:1000 in PBST and added to plates at 100 μL/well, and the plates were incubated at RT for one hour. The plates were then washed four times with 200 μL/well PBST. SureBlue Reserve TMB Microwell Peroxidase Substrate (KPL, Cat. No. 53-00-01) was added to plates at 100 μL/well followed by 1% phosphoric acid at 100 μL/well once the desired reaction was observed. The absorbance of each well was determined at 450 nm, and the results were normalized and plotted against the log of antibody concentration.
Ligand Blocking Properties.

[7] = molecular target: T6, hIGF-1R-Fc mutant SD017 (I650S) (human, UniProt P08069 31-933); assay: SPR: receptor-Fc captured on M13-C06 chip, then M13-C06 Fab; relative to wild type
T6 construct: not shown: human IgG1 Fc, C-terminal tag
T6 sequence (P08069 31-933 I680S): as the sequence (P08069 31-933 H494E) above, with E464H, I650S counted along it
Protocol: as §1

[8] = molecular target: T7, hIGF-1R-Fc mutant SD007 (N237G) (human, UniProt P08069 31-933); assay: as above
T7 construct: not shown: human IgG1 Fc, C-terminal tag
T7 sequence (P08069 31-933 N267G): as the sequence (P08069 31-933 H494E) above, with N237G, E464H counted along it
Protocol: as §1

[9] = molecular target: T8, hIGF-1R-Fc mutant SD014 (K412A, A413Q) (human, UniProt P08069 31-933); assay: as above
T8 construct: not shown: human IgG1 Fc, C-terminal tag
T8 sequence (P08069 31-933 K442A/A443Q): as the sequence (P08069 31-933 H494E) above, with K412A, A413Q, E464H counted along it
Protocol: as §1

T1 sequence (P08069 31-1367, stated change not applied): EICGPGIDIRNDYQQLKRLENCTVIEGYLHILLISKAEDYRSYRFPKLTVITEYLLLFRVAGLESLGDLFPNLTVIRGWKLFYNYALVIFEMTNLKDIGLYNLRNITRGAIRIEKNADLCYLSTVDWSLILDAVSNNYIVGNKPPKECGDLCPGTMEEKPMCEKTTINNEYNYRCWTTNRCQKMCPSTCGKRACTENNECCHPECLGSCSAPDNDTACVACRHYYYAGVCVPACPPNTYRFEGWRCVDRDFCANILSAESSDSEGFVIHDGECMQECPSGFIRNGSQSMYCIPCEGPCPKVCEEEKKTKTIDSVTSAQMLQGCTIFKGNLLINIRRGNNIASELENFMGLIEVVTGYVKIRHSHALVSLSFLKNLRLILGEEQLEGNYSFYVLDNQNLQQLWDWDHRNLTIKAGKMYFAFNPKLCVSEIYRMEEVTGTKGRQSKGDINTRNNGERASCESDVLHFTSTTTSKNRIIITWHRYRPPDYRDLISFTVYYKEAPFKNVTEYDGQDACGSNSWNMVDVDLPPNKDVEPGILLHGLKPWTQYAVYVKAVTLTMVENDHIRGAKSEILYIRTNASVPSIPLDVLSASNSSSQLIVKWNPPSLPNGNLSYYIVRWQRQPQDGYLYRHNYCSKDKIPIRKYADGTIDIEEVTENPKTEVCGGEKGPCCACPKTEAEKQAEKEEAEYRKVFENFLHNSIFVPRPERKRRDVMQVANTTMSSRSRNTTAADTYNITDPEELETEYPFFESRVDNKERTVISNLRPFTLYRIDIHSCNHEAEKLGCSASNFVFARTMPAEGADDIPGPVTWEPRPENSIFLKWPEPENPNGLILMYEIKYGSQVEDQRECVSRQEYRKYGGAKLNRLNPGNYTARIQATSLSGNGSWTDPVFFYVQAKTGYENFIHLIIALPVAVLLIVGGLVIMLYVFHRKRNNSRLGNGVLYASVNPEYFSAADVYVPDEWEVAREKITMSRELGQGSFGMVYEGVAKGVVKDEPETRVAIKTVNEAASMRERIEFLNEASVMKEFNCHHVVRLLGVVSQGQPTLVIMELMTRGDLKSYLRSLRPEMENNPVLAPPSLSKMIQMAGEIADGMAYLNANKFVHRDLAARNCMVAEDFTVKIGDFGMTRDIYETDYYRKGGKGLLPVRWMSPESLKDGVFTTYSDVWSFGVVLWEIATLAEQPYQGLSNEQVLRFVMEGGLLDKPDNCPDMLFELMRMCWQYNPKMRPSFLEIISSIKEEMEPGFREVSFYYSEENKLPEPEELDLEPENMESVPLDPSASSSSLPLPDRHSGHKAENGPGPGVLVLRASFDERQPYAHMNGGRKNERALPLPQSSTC

EC50 [1]: 0.25 nM
binding result [2]: no binding
ΔH° (sIGF-1R(1-903)): -21.9 kcal/mol
binding result [3]: no binding
IC50 (read off the curve) (human IGF-1R(1-903)-Fc [4]): ~1 nM
B1: M13-C06 antibody (antibody, V domains shown)
VH: EVQLLESGGGLVQPGGSLRLSCAASGFTFSIYRMQWVRQAPGKGLEWVSGISPSGGTTWYADSVKGRFTISRDNSKNTLYLQMNSLRAEDTAVYYCARWSGGSGYAFDIWGQGTMVTVSS
VL: DIQMTQSPLSLSASVGDRVTITCQASRDIRNYLNWYQQKPGKAPKLLIYDASSLQTGVPSRFGGSGSGTDFSFTIGSLQPEDIATYYCQQFDSLPHTFGQGTKLEIK
notes: Fully human full-length antibody (ATCC PTA-7444); also called M13.C06.G4.P.agly; M13-C06.G4P.agly

binding result [5]: no binding (tested: 10 nM)
IC50 (read off the curve) (human IGF-1R(1-903)-Fc [6]): ~1 nM
Biacore Relative RUmax [7]: 2
Biacore Relative RUmax [8]: 1.3
Biacore Relative RUmax [9]: 0.6
B2: M13-C06 Fab (Fab, V domains shown)
VH: B1 VH
VL: B1 VL
notes: Fab made by enzymatic digestion of the IgG
